Here are results for one compound from patent publication US8716246B2, “Azuvirin peptides” (The Regents of the University of California, priority 2011, dated 2014).

A short description of data set [1]: MultiTox-Fluor Multiplex Cytotoxicity Assay, RAW 264.7 cells. In kind it is cell-based. Conditions: mouse, 24 h co-culture, read-out: LD50, RAW cells. As for the experimental part: (§1) Experiments were carried out using MultiTox-Fluor Multiplex Cytotoxicity Assay (Promega Corp., Madison, Wis.) as previously described. This assay simultaneously measures the number of live and dead cells in culture wells based on the activity of two proteases, one a marker of cell viability, and the other a marker of cytotoxicity, which yield products with different excitation and emission spectra. Briefly, for cytotoxicity experiments murine LCC (or RAW 264.7) cells were plated in a 96-well plate at a density of 1×10^4 cells/well in a total volume of 50 μl of culture media and treated with various concentrations of tested peptides (50 μl of 0-400 μM peptides in culture media). Cells' viability was assessed 24 h later by MultiTox-Fluor Multiplex Cytotoxicity Assay (incubation time 1 h). For cell viability experiments, LCC cells were plated in a 96-well plate at a density of 5×10^3 cells/well in a total volume of 50 μl of culture media and treated with various concentrations of tested peptide (50 μl of 0-200 μM peptide in culture media) for 1 hour prior to 0, 2, 4 Gy irradiation. Cell viability was assessed 72 h later by MultiTox-Fluor Multiplex Cytotoxicity Assay (incubation time 1 h). All experiments were carried out in triplicates.

The nature of data set [2]: MultiTox-Fluor Multiplex Cytotoxicity Assay, LLC cells. In kind it is cell-based, murine. Conditions: mouse, Lewis lung carcinoma (LLC) cells; 24 h co-culture; read-out: LD50, LLC cells. As for the experimental part: as §1
Data set [3] can be described thus: Observation of toxicity during the in vivo mouse studies. The following applies: 25 mg/kg IP. More on the design: species or system C57BL/6 mice. As for the experimental part:
Animal experiments. C57BL/6 gnotobiotic mice (8 weeks old) were obtained from the UCLA AALAC accredited Department of Radiation Oncology Facility and intravenously injected with 5×10^5 cells of syngeneic LLC. Various treatments were initiated 4 days later, after cancer engraftment. In general, each animal received intraperitoneally a total of 500 μg (˜25 mg/kg) of peptide (or equimolar amount of nicotinamide) in 4 daily doses 60 min before local thoracic irradiation (0 or 4 Gy, total dose: 4.4=16 Gy) that was delivered using an Atomic Energy of Canada cesium gamma irradiator with a dose rate of approximately 0.6 Gy/min with the rest of the body shielded. Prior to irradiation animals were anesthetized by intraperitoneal injection of ketamine/xylazine mixture. Animals were sacrificed on the 14th day of the experiment and lung tumor nodules were counted. All experiments were approved by the UCLA Animal Care and Use Committee and conformed to local and national guidelines.
C57BL/6 mice (8 weeks old) were injected subcutaneously with 1.0×10^6 cells of syngeneic LLC (leg). After 10 days, palpable tumors of approximately 5 mm diameter appeared and treatment was initiated. […] Tumor size was assessed every two days and animals sacrificed as necessary according to the UCLA Animal Care guidelines.

A further data set addresses rhEphA2 (Homo sapiens, UniProt P29317). As to the kind of experiment: SPR binding to immobilized rhEphA2 (Biacore 3000). More on the design: purchased R&D Systems, Inc., Minneapolis, Minn. Here is the method:
Binding to selected ephrin receptors was measured by surface plasmon resonance on a Biacore3000 instrument. Commercially available ephrin receptors: EphA2, EphB2 and EphB4 (R&D Systems) were immobilized on a CM-5 chip by amine coupling and tested peptides were passed over a chip surface as analytes.
Binding studies. Binding studies were performed by surface plasmon resonance (SPR) on a BIAcore 3000 system (BiaCore AB, Piscataway, N.J.). BIAcore CM5 sensor chips were utilized in all experiments. Binding studies were performed in HBS-EP running buffer (pH=7.4) containing 10 mM HEPES, 150 mM NaCl, 3 mM EDTA, and 0.005% polysorbate 20. Commercially available ephrin receptors: EphA2, EphB2 and EphB4 (R&D Systems, Inc., Minneapolis, Minn.) were immobilized on a CM5 sensor chip using the amine coupling method. The chip was activated by mixing 400 mM N-ethyl-N-(3-dimethylaminopropyl)-carbodiimide hydrochloride and 100 mM N-hydroxysuccinimide. Residual reactive groups on the chip surface were blocked using 1.0 M ethanolamine/HCl (pH=8.5). The flow cell-1 chip, which served as a control, lacked immobilized protein but was treated with N-ethyl-N-(3-dimethylaminopropyl)-carbodiimide hydrochloride, N hydroxysuccinimide, and ethanolamine/HCl. Binding signals were corrected for nonspecific binding by subtracting the flow cell-1 signal (blank surface). To regenerate chip surfaces, bound ligands were removed with 10 mM HCl. Data were analyzed with BIAevaluation 4.1 software (Biacore, Piscataway, N.J.).
In general terms: In SPR one partner is held on a chip, and binding of the other changes the refractive index at the surface.

Square brackets hold non-standard residues; d marks the D form. Peptide text beside a SMILES is read from it. * marks the point of attachment. Oic = O=C(O)[C@@H]1C[C@@H]2CCCC[C@@H]2N1; Cha = N[C@@H](CC1CCCCC1)C(=O)O; Tle = CC(C)(C)[C@H](N)C(=O)O; Nicotinoyl = O=C(c1cccnc1)*; Acm = CC(=O)NC*

`CC(=O)NCSC[C@H](NC(=O)[C@H](CC1CCCCC1)NC(=O)[C@H](CC1CCCCC1)NC(=O)[C@@H](CCCCNC(=O)c1cccnc1)NC(=O)[C@@H](N)Cc1ccc(O)cc1)C(=O)N[C@H](C(=O)N[C@@H](CC1CCCCC1)C(=O)N1[C@H](C(=O)N[C@H](CCCNC(=N)N)C(=O)N[C@@H](Cc2c[nH]cn2)C(=O)N[C@@H](CCCNC(=N)N)C(=O)N[C@H](C(=O)N[C@@H](CC2CCCCC2)C(=O)N[C@@H](CSCNC(C)=O)C(=O)N[C@H](CCCCN)C(N)=O)[C@@H](C)O)C[C@@H]2CCCC[C@@H]21)C(C)(C)C` [AzV36-NicL, YkNic-Cha-Cha-Cam-Tle-Cha-Oic-rHRT-Cha-Cam-k-CONH] (H-Y[dK](Nicotinoyl)[Cha][Cha]C(Acm)[Tle][Cha][Oic][dR]HRT[Cha]C(Acm)[dK]-NH2): the CC50 at 24 h in data set [1] was 10.3 ± 0.78 µM; in data set [2], 17 ± 2.84 µM. The “toxic effect of the injections in vivo” value in data set [3] was “no obvious toxic effect”. At rhEphA2, the Kd – broadly, a measure of binding affinity in units of concentration – stood at 0.0139 ± 0.0029 µM.
